Data as given in US20040052788A1 (IMMUNEX, published 2004).

T1: human CD30 (human, UniProt P28908 19-385, limits assumed)
T1 sequence (looked up): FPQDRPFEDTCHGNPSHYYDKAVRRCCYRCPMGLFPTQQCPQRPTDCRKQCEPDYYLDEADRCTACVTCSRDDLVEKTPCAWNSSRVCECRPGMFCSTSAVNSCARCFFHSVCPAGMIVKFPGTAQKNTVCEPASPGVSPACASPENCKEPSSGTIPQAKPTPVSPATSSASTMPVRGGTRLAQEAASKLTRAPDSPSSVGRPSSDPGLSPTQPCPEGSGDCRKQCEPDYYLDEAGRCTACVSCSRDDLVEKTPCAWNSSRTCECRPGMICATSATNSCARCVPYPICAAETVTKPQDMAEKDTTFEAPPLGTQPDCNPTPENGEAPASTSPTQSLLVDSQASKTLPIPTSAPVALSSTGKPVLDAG

B1: human TRAIL (TNF Related Apoptosis Inducing Ligand), as used in the receptor binding analysis (ligand)
chain: MAMMEVQGGPSLGQTCVLIVIFTVLLQSLCVAVTYVYFTNELKQMQDKYSKSGIACFLKEDDSYWDPNDEESMNSPCWQVKWQLRQLVRKMILRTSEETISTVQEKQQNISPLVRERGPQRVAAHITGTRGRSNTLSSPNSKNEKALGRKINSWESSRSGHSFLSNLHLRNGELVIHEKGFYYIYSQTYFRFQEEIKENTKNDKQMVQYIYKYTSYPDPILLMKSARNSCWSKDAEYGLYSIYQGGIFELKENDRIFVSVTNEHLIDMDHEASFFGAFLVG
notes: also called huTRAIL

Key:
[1] = target: B1; assay: slide autoradiography (procedure of Gearing et al.)
Method: (§1) TRAIL was tested for ability to bind receptors of the TNF-R family of receptors. The binding analysis was conducted using the slide autoradiography procedure of Gearing et al. (EMBO J. 8:3667, 1989).

[2] = target: T1, human CD30; assay: as above
Method: as §1

| Binder | binding result [1] | binding result [2] |
| --- | --- | --- |
| human TNF-R (p80 form) (receptor, UniProt P20333 23-257, looked up) LPAQVAFTPYAPEPGSTCRLREYYDQTAQMCCSKCSPGQHAKVFCTKTSDTVCDSCEDSTYTQLWNWVPECLSCGSRCSSDQVETQACTREQNRICTCRPGWYCALSKQEGCRLCAPLRKCRPGFGVARPGTETSDVVCKPCAPGTFSNTTSSTDICRPHQICNVVAIPGNASMDAVCTSTSPTRSMAPGAVHLPQPVSTRSQHTQPTPEPSTAPSTSFLLPMGPSPPAEGSTGD | no binding | – |
| B1 | – | no binding |
| human OX40 (receptor, UniProt P43489 29-214, looked up) LHCVGDTYPSNDRCCHECRPGNGMVSRCSRSQNTVCRPCGPGFYNDVVSSKPCKPCTWCNLRSGSERKQLCTATQDTVCRCRAGTQPLDSYKPGVDCAPCPPGHFSPGDNQACKPWTNCTLAGKHTLQPASNSSDAICEDRDPPATQPQETQGPPARPITVQPTEAWPRTSQGPSTRPVEVPGGRA | no binding | – |
| human CD27 (receptor, UniProt P26842 20-191, looked up) ATPAPKSCPERHYWAQGKLCCQMCEPGTFLVKDCDQHRKAAQCDPCIPGVSFSPDHHTRPHCESCRHCNSGLLVRNCTITANAECACRNGWQCRDKECTECDPLPNPSLTARSSQALSPHPQPTHLPYVSEMLEARTAGHMQTLADFRQLPARTLSTHWPPQRSLCSSDFIR | no binding | – |
| human LTβR (receptor, UniProt P36941 31-227, looked up, also called TNFR-RP) QAVPPYASENQTCRDQEKEYYEPQHRICCSRCPPGTYVSAKCSRIRDTVCATCAENSYNEHWNYLTICQLCRPCDPVMGLEEIAPCTSKRKTQCRCQPGMFCAAWALECTHCELLSDCPPGTEAELKDEVGKGNNHCVPCKAGHFQNTSSPSARCQPHTRCENQGLVEAAPGTAQSDTTCKNPLEPLPPEMSGTMLM | no binding | – |
